# In IntAct's records for PubMed 21037566:
# Target: lef_bacan lef (UniProt P15917)
row,Substance,effect of a mutation on the interaction
1,Protective antigen (Bacillus anthracis) (from UniProt P13423) H240A,disrupting interaction
2,Protective antigen (Bacillus anthracis) (from UniProt P13423) L216A,disrupting interaction
